Experimental data taken from patent US20210347908A1 (ELPISCIENCE SUZHOU BIOPHARMA, published 2021).

Columns and labels:
[1] = molecular target: T1, full length human SIRPα v1 stably expressed on CHOK1 cells (human, UniProt P78324 31-504); test: FACS on CHOK1-human SIRPα v1-1B4 cells
T1 construct: whole, on cells; also called CHOK1-human SIRPα v1-1B4 cells; CHOK1-human SIRPα v1
Protocol: Species cross reactivity of the purified hybridoma antibodies against human, cyno and mouse SIRPα was determined by FACS assay using CHOK1-human SIRPα v1-1B4 cells, CHOK1-cyno SIRPα-2A2 cells, and CHOK1-C57BL/6 mouse SIRPα-2.22 cells, which stably expressing SIRPα protein. Briefly the antibodies were incubated with 2×10⁵ target cells at 4° C. for 1 hour. After washing, fluorescence labeled anti-mouse or anti-human IgG 2nd antibody (Life Technologies) was added and incubated at 4° C. for 1 hour. Geometric median fluorescence intensity was detected and EC₅₀ was calculated. In particular, it is noted, in contrast to the other antibodies tested in the same experiment, 060 cannot bind with cyno SIRPα and 035 has cross reactivity against C57BL/6 mouse SIRPα.
(§1) hu035.01, the first version of humanized 035, was characterized by FACS assay using CHOK1-human SIRPα v1-1B4 cells, ELISA assay using Fc tagged human SIRPα v2 ECD recombinant protein and SPR analysis using the antigen of 6×His tagged human SIRPα v2 ECD recombinant protein (refer to methods described in Example 3.4, Example 3.3 and Example 4.3). […] In particular, hu035.01 cannot be detected to bind with C57BL/6 mouse SIRPα ECD in ELISA assay possibly due to reduced binding activity (FIG. 5B).

[2] = molecular target: 6×His tagged human SIRPα v2 ECD recombinant protein (human); test: SPR (Biacore)
Chain of 6×His tagged human SIRPα v2 ECD recombinant protein (human) (chain, as listed by the source): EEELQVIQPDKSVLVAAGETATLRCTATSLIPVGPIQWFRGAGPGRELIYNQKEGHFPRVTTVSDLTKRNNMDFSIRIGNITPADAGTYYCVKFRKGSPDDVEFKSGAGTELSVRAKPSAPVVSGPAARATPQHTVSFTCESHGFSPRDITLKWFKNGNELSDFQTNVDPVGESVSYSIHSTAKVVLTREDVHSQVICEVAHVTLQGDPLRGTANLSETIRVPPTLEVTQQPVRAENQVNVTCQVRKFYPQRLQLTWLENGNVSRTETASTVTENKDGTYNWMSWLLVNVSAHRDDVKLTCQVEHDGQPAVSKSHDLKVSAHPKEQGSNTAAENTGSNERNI
Protocol: Anti-SIRPα chimeric antibodies were characterized for binding affinity against human SIRPα v1, human SIRPα v2 and C57BL/6 mouse SIRPα using Biacore (GE). Briefly the antibodies to be tested were captured to CM5 chip (GE) using Human Antibody Capture Kit (GE). The antigens of 6×His tagged human SIRPα v1, human SIRPα v2 and C57BL/6 mouse SIRPα ECD recombinant proteins were serially diluted for multiple doses and injected at 30 μl/min for 180 s. Buffer flow was maintained for dissociation of 400 s. 3 M MgCl₂ was used for chip regeneration. The association and dissociation curves were fit with 1:1 binding model, and the Ka/Kd/KD values for each antibody were calculated.
as §1

T1 sequence (P78324 31-504): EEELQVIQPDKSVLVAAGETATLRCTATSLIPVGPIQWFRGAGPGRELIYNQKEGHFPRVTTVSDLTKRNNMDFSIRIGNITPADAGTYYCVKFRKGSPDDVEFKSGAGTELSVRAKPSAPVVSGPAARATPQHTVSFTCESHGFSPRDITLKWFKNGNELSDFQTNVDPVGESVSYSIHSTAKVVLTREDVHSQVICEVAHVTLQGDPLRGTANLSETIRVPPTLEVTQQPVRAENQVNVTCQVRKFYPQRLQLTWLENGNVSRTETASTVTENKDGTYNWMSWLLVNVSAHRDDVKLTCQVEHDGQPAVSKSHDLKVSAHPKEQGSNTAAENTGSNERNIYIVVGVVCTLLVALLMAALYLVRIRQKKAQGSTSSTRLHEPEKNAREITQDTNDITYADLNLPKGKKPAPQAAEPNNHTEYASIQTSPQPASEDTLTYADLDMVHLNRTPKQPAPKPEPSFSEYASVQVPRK

B1: chimeric antibody 035c (antibody, V domains shown)
VH: QIQLVQSGPELRKPGETVKISCKASGYSFTNYAMNWVKQAPGKVLKWMGFINTYTGEPTYADDFKGRFAFSLETSASTAYLQINNLKNEDTATYFCTRTRGYYDFDGGAFDYWGQGTSLTVSS
VL: DIVMTQSQKFMSTSIGDRVSVTCKASQNVGTHLAWYQQKPGQSPKALIFSASYRYIGVPDRFTGSGSGTDFTLTITNVQSEDLAEYFCQQYNTYPLTFGAGTKLELK
With B1 the “EC50 (read off the curve)” value [1] was roughly 0.2 µg/mL and the Kd [2] was 0.61 nM.
